Experimental data: patent publication US12269859B2, “Synthetic immune receptors and methods of use thereof” (Angeles Therapeutics, Inc., priority 2016, dated 2025)

Test system: target antigen-expressing cell line
Assay: Jurkat NFAT-GFP assay, coculture with target cell lines expressing the respective target antigen (summary Table 10A)
Type: cell-based, human
Design: key: The signs +/−, +, 2+ etc. after the name of the cell lines indicate the relative degree of positivity on the Jurkat-NFAT-GFP assay as measured by the % GFP positive cells; +: relative degree of positivity on the Jurkat-NFAT-GFP assay as measured by the % GFP positive cells; 2+: relative degree of positivity on the Jurkat-NFAT-GFP assay as measured by the % GFP positive cells
Conditions: relative % GFP positive cells; for NFAT-GFP ASSAY Positive Cell lines: RAJI: SIR-expressing Jurkat-NFAT-GFP cells cocultured with RAJI; for NFAT-GFP ASSAY Positive Cell lines: Bv173: SIR-expressing Jurkat-NFAT-GFP cells cocultured with Bv173; for NFAT-GFP ASSAY Positive Cell lines: THP1: SIR-expressing Jurkat-NFAT-GFP cells cocultured with THP1
Summary of the method: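 Jurkat cells carrying an NFAT-driven GFP reporter and lentivirally expressing a SIR were cocultured with antigen-bearing target cells (E:T ~1:2) for about 4–18 h. GFP induction read by flow cytometry as % GFP+ cells, scored positive and graded (+/−, +, 2+) against parental Jurkat-NFAT-GFP cells.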

Row | Molecule | NFAT-GFP ASSAY Positive Cell lines: RAJI | NFAT-GFP ASSAY Positive Cell lines: Bv173 | NFAT-GFP ASSAY Positive Cell lines: THP1 | further results
1 | 031517-S02 (protein) MALPVTALLLPLALLLHAARPLEGKPIPNPLLGLDSTGSGEDLKNVFPPEVAVFEPSKAEIAHTQKATLVCLATGFYPDHVELSWWVNGKEVHSGVCTDPQPLKEQPALNDSRYCLSSRLRVSATFWQNPRNHFRCQVQFYGLSENDEWTQDRAKPVTQIVSAEAWGRADCGITSASYHQGVLSATILYEILLGKATLYAVLVSALVLMAMVKRKDSRGRAKRSGSGATNFSLLKQAGDVEENPGPTSMALPVTALLLPLALLLHAARPDIVLTQSPASLAVSLGERATINCRASESVSVIGAHLIHWYQQKPGQPPKLLIYLASNLETGVPARFSGSGSGTDFTLTISSLQAEDAAIYYCLQSRIFPRTFGQGTKLEIKGGGGSGGGGSGGGGSQVQLVQSGSELKKPGESVKISCKASGYTFTDYSINWVKQAPGQGLKWMGWINTETREPAYAYDFRGRFVFSLDTSASTAYLQISSLKAEDTAVYFCALDYSYAMDYWGQGTLVTVSSTREQKLISEEDGSGIQNPDPAVYQLRDSKSSDKSVCLFTDFDSQTNVSQSKDSDVYITDKCVLDMRSMDFKSNSAVAWSNKSDFACANAFNNSIIPEDTFFPSSDVPCDVKLVEKSFETDTNLNFQNLSVIGFRILLLKVAGFNLLMTLRLWSSRAKRSGSGVKQTLNFDLLKLAGDVESNPGPSRGHMTEYKPTVRLATRDDVPRAVRTLAAAFADYPATRHTVDPDRHIERVTELQELFLTRVGLDIGKVWVADDGAAVAVWTTPESVEAGAVFAEIGPRMAELSGSRLAAQQQMEGLLAPHRPKEPAWFLATVGVSPDHQGKGLGSAVVLPGVEAAERAGVPAFLETSAPRNLPFYERLGFTVTADVEVPEGPRTWCMTRKPGA |  |  |  | NFAT-GFP ASSAY Positive Cell lines: L363 (SIR-expressing Jurkat-NFAT-GFP cells cocultured with L363): L363 (+/−), U266; NFAT-GFP ASSAY Positive Cell lines: U266 (SIR-expressing Jurkat-NFAT-GFP cells cocultured with U266): (+/−)
2 | 110116-G04 (protein, Synthetic Immune Receptor (SIR)) MALPVTALLLPLALLLHAARPLEQKLISEEDLGSGDRPDPAVYQLRDSKSSDKSVCLFTDFDSQTNVSQSKDSDVYITDKCVLDMRSMDFKSNSAVAWSNKSDFACANAFNNSIIPEDTFFPSPESSCDVKLVEKSFETDTNLNFQNLSVIGFRILLLKVAGFNLLMTLRLWSSSSRAKRSGSGVKQTLNFDLLKLAGDVESNPGPTSTMALPVTALLLPLALLLHAARPDIVMTQTPLTLSVTIGQPASISCKSSQSLLDSDGKTYLNWLLQRPGQSPERLIYLVSKLDSGVPDRFTGSGSGTDFTLKISRVEAEDLGVYCCWQGTHFPYTFGGGTKVEIKGGGGGSGGGGSGGGGSQVQLQQPGAELVRPGASVKLSCKASGYTFTSYWMNWVKQRPGQGLEWIGMIDPSDSETHYNHIFKDKATLTVDKSSSTAYLQLSSLTSEDSAVYYCARNLYLWGQGTSVTVSSTRGKPIPNPLLGLDSTGSGEDLKNVFPPEVAVFEPSEAEISHTQKATLVCLATGFYPDHVELSWWVNGKEVHSGVCTDPQPLKEQPALNDSRYCLSSRLRVSATFWQNPRNHFRCQVQFYGLSENDEWTQDRAKPVTQIVSAEAWGRADCGFTSESYQQGVLSATILYEILLGKATLYAVLVSALVLMAMVKRKDSRGRAKRSGSGATNFSLLKQAGDVEENPGPSRGHMTEYKPTVRLATRDDVPRAVRTLAAAFADYPATRHTVDPDRHIERVTELQELFLTRVGLDIGKVWVADDGAAVAVWTTPESVEAGAVFAEIGPRMAELSGSRLAAQQQMEGLLAPHRPKEPAWFLATVGVSPDHQGKGLGSAVVLPGVEAAERAGVPAFLETSAPRNLPFYERLGFTVTADVEVPEGPRTWCMTRKPGA | RAJI (+/−) |  |  | 
3 | 090116-G02 (protein, Synthetic Immune Receptor (SIR)) MALPVTALLLPLALLLHAARPLEGKPIPNPLLGLDSTGSGEDLKNVFPPEVAVFEPSKAEIAHTQKATLVCLATGFYPDHVELSWWVNGKEVHSGVCTDPQPLKEQPALNDSRYCLSSRLRVSATFWQNPRNHFRCQVQFYGLSENDEWTQDRAKPVTQIVSAEAWGRADCGITSASYHQGVLSATILYEILLGKATLYAVLVSALVLMAMVKRKDSRGRAKRSGSGATNFSLLKQAGDVEENPGPTSTMALPVTALLLPLALLLHAARPDIVMTQTPLTLSVTIGQPASISCKSSQSLLDSDGKTYLNWLLQRPGQSPERLIYLVSKLDSGVPDRFTGSGSGTDFTLKISRVEAEDLGVYCCWQGTHFPYTFGGGTKVEIKGGGGGSGGGGSGGGGSQVQLQQPGAELVRPGASVKLSCKASGYTFTSYWMNWVKQRPGQGLEWIGMIDPSDSETHYNHIFKDKATLTVDKSSSTAYLQLSSLTSEDSAVYYCARNLYLWGQGTSVTVSSTREQKLISEEDGSGIQNPDPAVYQLRDSKSSDKSVCLFTDFDSQTNVSQSKDSDVYITDKCVLDMRSMDFKSNSAVAWSNKSDFACANAFNNSIIPEDTFFPSSDVPCDVKLVEKSFETDTNLNFQNLSVIGFRILLLKVAGFNLLMTLRLWSSRAKRSGSGVKQTLNFDLLKLAGDVESNPGPSRGHMTEYKPTVRLATRDDVPRAVRTLAAAFADYPATRHTVDPDRHIERVTELQELFLTRVGLDIGKVWVADDGAAVAVWTTPESVEAGAVFAEIGPRMAELSGSRLAAQQQMEGLLAPHRPKEPAWFLATVGVSPDHQGKGLGSAVVLPGVEAAERAGVPAFLETSAPRNLPFYERLGFTVTADVEVPEGPRTWCMTRKPGA | RAJI (+) |  |  | 
4 | 111215-J02 (protein, Synthetic Immune Receptor (SIR)) MDWIWRILFLVGAATGAHSFEVQLVESGGGSVQAGGSLRLSCTTSGRALNMYVMGWFRQAPGNEREFVAATSSSGGSTSYPDSVKGRFTISRDNAKNTVYLQMNSLKPEDTAAYRCAASPYVSTPTMNILEEYRYWGLGTQVTVSSLEGKPIPNPLLGLDSTGSGEDLKNVFPPEVAVFEPSEAEISHTQKATLVCLATGFYPDHVELSWWVNGKEVHSGVCTDPQPLKEQPALNDSRYCLSSRLRVSATFWQNPRNHFRCQVQFYGLSENDEWTQDRAKPVTQIVSAEAWGRADCGFTSESYQQGVLSATILYEILLGKATLYAVLVSALVLMAMVKRKDSRGRAKRSGSGATNFSLLKQAGDVEENPGPTSMDWIWRILFLVGAATGAHSFEVQLVESGGGLVQAGGSLRLSCAASGSIFSGNVMGWYRRQAPGKEREWVAAIASGGSIYYRDSVKGRFTISRDNAKNTVYLQMNSLKPEDTAVYYCNSHPPTLPYWGLGTQVTVSSTREQKLISEEDGSGIQNPDPAVYQLRDSKSSDKSVCLFTDFDSQTNVSQSKDSDVYITDKCVLDMRSMDFKSNSAVAWSNKSDFACANAFNNSIIPEDTFFPSPESSCDVKLVEKSFETDTNLNFQNLSVIGFRILLLKVAGFNLLMTLRLWSSRAKRSGSGVKQTLNFDLLKLAGDVESNPGPSRGHMTEYKPTVRLATRDDVPRAVRTLAAAFADYPATRHTVDPDRHIERVTELQELFLTRVGLDIGKVWVADDGAAVAVWTTPESVEAGAVFAEIGPRMAELSGSRLAAQQQMEGLLAPHRPKEPAWFLATVGVSPDHQGKGLGSAVVLPGVEAAERAGVPAFLETSAPRNLPFYERLGFTVTADVEVPEGPRTWCMTRKPGA |  | (+) |  | NFAT-GFP ASSAY Positive Cell lines: MOLM13 (SIR-expressing Jurkat-NFAT-GFP cells cocultured with MOLM13): MOLM13 (+), Bv173
5 | 111215-K06 (protein, Synthetic Immune Receptor (SIR)) MDWIWRILFLVGAATGAHSFEVQLVESGGGSVQAGGSLRLSCTTSGRALNMYVMGWFRQAPGNEREFVAATSSSGGSTSYPDSVKGRFTISRDNAKNTVYLQMNSLKPEDTAAYRCAASPYVSTPTMNILEEYRYWGLGTQVTVSSLEGKPIPNPLLGLDSTGSGEDLKNVFPPEVAVFEPSKAEIAHTQKATLVCLATGFYPDHVELSWWVNGKEVHSGVCTDPQPLKEQPALNDSRYCLSSRLRVSATFWQNPRNHFRCQVQFYGLSENDEWTQDRAKPVTQIVSAEAWGRADCGITSASYHQGVLSATILYEILLGKATLYAVLVSALVLMAMVKRKDSRGRAKRSGSGATNFSLLKQAGDVEENPGPTSMDWIWRILFLVGAATGAHSFEVQLVESGGGLVQAGGSLRLSCAASGSIFSGNVMGWYRRQAPGKEREWVAAIASGGSIYYRDSVKGRFTISRDNAKNTVYLQMNSLKPEDTAVYYCNSHPPTLPYWGLGTQVTVSSTREQKLISEEDGSGIQNPDPAVYQLRDSKSSDKSVCLFTDFDSQTNVSQSKDSDVYITDKCVLDMRSMDFKSNSAVAWSNKSDFACANAFNNSIIPEDTFFPSSDVPCDVKLVEKSFETDTNLNFQNLSVIGFRILLLKVAGFNLLMTLRLWSSRAKRSGSGVKQTLNFDLLKLAGDVESNPGPSRGHMTEYKPTVRLATRDDVPRAVRTLAAAFADYPATRHTVDPDRHIERVTELQELFLTRVGLDIGKVWVADDGAAVAVWTTPESVEAGAVFAEIGPRMAELSGSRLAAQQQMEGLLAPHRPKEPAWFLATVGVSPDHQGKGLGSAVVLPGVEAAERAGVPAFLETSAPRNLPFYERLGFTVTADVEVPEGPRTWCMTRKPGA |  | Bv173 (+), THP1 | (+), | 
6 | 051116-C05 (protein, Synthetic Immune Receptor (SIR)) MALPVTALLLPLALLLHAARPDIVMTQSPDSLAVSLGERATINCRASKSVSTSGYSFMHWYQQKPGQPPKLLIYLASNLESGVPDRFSGSGSGTDFTLTISSLQAEDVAVYYCQHSREVPWTFGQGTKVEIKRLEDLKNVFPPEVAVFEPSEAEISHTQKATLVCLATGFYPDHVELSWWVNGKEVHSGVSTDPQPLKEQPALNDSRYCLSSRLRVSATFWQNPRNHFRCQVQFYGLSENDEWTQDRAKPVTQIVSAEAWGRADCGFTSESYQQGVLSATILYEILLGKATLYAVLVSALVLMAMVKRKDSRGRAKRSGSGATNFSLLKQAGDVEENPGPTSMDWIWRILFLVGAATGAHSFEQVQLVQSGAEVKKPGASVKVSCKASGYTFTNYGMNWVRQAPGQGLEWMGWINTYTGEPTYADAFKGRFAFSLDTSTSTAYLQINSLRSDDTAVYYCARDYGDYGMDYWGQGTTVTVSSTRIQNPDPAVYQLRDSKSSDKSVCLFTDFDSQTNVSQSKDSDVYITDKTVLDMRSMDFKSNSAVAWSNKSDFACANAFNNSIIPEDTFFPSPESSCDVKLVEKSFETDTNLNFQNLSVIGFRILLLKVAGFNLLMTLRLWSSRAKRSGSGVKQTLNFDLLKLAGDVESNPGPSRGHMTEYKPTVRLATRDDVPRAVRTLAAAFADYPATRHTVDPDRHIERVTELQELFLTRVGLDIGKVWVADDGAAVAVWTTPESVEAGAVFAEIGPRMAELSGSRLAAQQQMEGLLAPHRPKEPAWFLATVGVSPDHQGKGLGSAVVLPGVEAAERAGVPAFLETSAPRNLPFYERLGFTVTADVEVPEGPRTWCMTRKPGA |  |  | THP1 (+/−) | 
